Experiment [1] deals with T1, TONSL Ankyrin Repeat Domain (ARD, residues 512-692), purified recombinant (human, UniProt Q96HA7 512-692).
T1 construct: Expressed as a GST fusion in E. coli; Used in ITC, peptide pull-down and native MS; also called TONSL ARD; TONSL-ARD
T1 sequence: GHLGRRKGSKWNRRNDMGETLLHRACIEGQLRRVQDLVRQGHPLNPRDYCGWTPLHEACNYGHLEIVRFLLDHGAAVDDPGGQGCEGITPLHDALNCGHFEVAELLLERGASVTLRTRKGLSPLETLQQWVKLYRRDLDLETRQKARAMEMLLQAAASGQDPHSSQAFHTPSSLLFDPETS
Briefly: native MS, titration Kd (constant peptide to protein ratio, decreasing protein concentration). On the procedure:
(§1) The mass spectrometry (MS) analysis were carried out on an electrospray time-of-flight mass spectrometer (LCT, Waters, Manchester, UK) equipped with an automated chip-based nanoESI device (Triversa Nanomate, Advion Biosciences, Ithaca, N.Y.). External calibration was done in the positive ion mode over the mass range m/z 200-6000 using the multiply charged ions produced by 0.4 μM horse heart myoglobin solution diluted in water/acetonitrile 50/50 mixture acidified with 0.5% (v/v) formic acid. […] […] Incubations were performed at room temperature for 15 min. Mass spectra were recorded using reduced cone voltage (Vc=50 V) and elevated interface pressure (Pi=5 mbar) which correspond to fine-tuned instrumental settings providing sufficient ion desolvation while preserving the integrity of weak non-covalent complexes in the gas phase. Micromass MassLynx 4.1 was used for data acquisition and processing.
(§2) This protein proportion is used to calculate the bound protein, the free protein and the free peptide concentrations. The Kd is calculated by using the following equation for each protein/peptide concentration. The final Kd for each peptide is the average of the Kd at different protein/peptide ratio.

In experiment [2] the target is T1, TONSL Ankyrin Repeat Domain (ARD, …). The experiment is described as follows: native MS, apparent Kd.
Experiment [3] has the same target. Briefly: native MS, abundance of the 1:1 protein-peptide complex, 10 µM TONSL ARD. As for the experimental part: The mass spectrometry (MS) analysis were carried out on an electrospray time-of-flight mass spectrometer (LCT, Waters, Manchester, UK) equipped with an automated chip-based nanoESI device (Triversa Nanomate, Advion Biosciences, Ithaca, N.Y.). External calibration was done in the positive ion mode over the mass range m/z 200-6000 using the multiply charged ions produced by 0.4 μM horse heart myoglobin solution diluted in water/acetonitrile 50/50 mixture acidified with 0.5% (v/v) formic acid. […] The protein concentration was set to 10 μM and different peptide concentrations ranging from 1 to 5 molar equivalents were added. Incubations were performed at room temperature for 15 min. Mass spectra were recorded using reduced cone voltage (Vc=50 V) and elevated interface pressure (Pi=5 mbar) which correspond to fine-tuned instrumental settings providing sufficient ion desolvation while preserving the integrity of weak non-covalent complexes in the gas phase. Micromass MassLynx 4.1 was used for data acquisition and processing.
The proportion of 1:1 stoichiometry complex is calculated according to the following equation: […]

Experiment [4] has the same target. Briefly: native MS, titration Kd (constant peptide to protein ratio, decreasing protein concentration); Titration Kd; no apparent Kd given for Example 11. As for the experimental part:
as §1, §2

Experiment [5] concerns the target T2, MCM2 Histone-binding Domain (HBD, residues 61-130) (human, UniProt P49736 61-130).
T2 construct: In the crystal it is linked to TONSL ARD by the G4 linker; also called MCM2 HBD
Briefly: GST pull-down of recombinant H3-H4 and MCM2 HBD with GST-TONSL ARD, stained gel (MCM2 HBD offered together with H3-H4).

Experiment [6] addresses T3, TONSL acidic stretch and ARD (aa. 450-692) (human, UniProt Q96HA7 450-692).
T3 sequence: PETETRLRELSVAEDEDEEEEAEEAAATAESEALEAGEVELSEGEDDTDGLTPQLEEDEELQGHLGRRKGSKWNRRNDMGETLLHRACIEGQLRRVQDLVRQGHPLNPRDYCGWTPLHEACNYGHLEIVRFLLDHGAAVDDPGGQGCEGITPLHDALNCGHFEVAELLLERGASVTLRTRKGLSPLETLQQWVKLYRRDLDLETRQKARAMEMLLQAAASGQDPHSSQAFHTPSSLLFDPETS
Briefly: ITC, peptide injected into TONSL (450-692); the value stands without a heading in the legend box, in the column where the other peptide has NB.

Experiment [7] has as its target T1, TONSL Ankyrin Repeat Domain (ARD, …). The experiment is described as follows: ITC, peptide injected into TONSL ARD. A general note: ITC needs no label: the signal is the heat of the interaction.

The values below come from patent US20200148732A1 (UNIVERSITY OF COPENHAGEN, published 2020).

Residue numbers refer to the chain shown, from its start. Where no end group is shown, it is not given here.

T2 sequence (P49736 61-130): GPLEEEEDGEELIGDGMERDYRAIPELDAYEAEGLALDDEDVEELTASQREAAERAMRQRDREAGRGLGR

B1: Lys-Gly-Gly-Ala-Lys-Arg-His-Arg-Lys-Val-Leu-Arg-NH2, Example 13 (peptide)
peptide: KGGAKRHRKVLR-NH2
Regarding B1, the Kd amounted to 310 nM in experiment [1] and 100 nM in experiment [2]. Moreover, the “% P1L1” value in experiment [3] amounted to 89.9%.

B2: Lys-Gly-Gly-Ala-Ala-Arg-His-Arg-Lys-Val-Leu-Arg-NH2, Example 15 (peptide)
peptide: KGGAARHRKVLR-NH2
notes: H4 12-23 with Lys16 replaced by Ala
Consider B2, for which the Kd in experiment [2] is 400 nM. For the same molecule, the “% P1L1” value in experiment [3] came to 81.4%.

B3: Lys-Gly-Gly-Ala-Lys-Arg-His-Ala-Lys-Val-Leu-Arg-NH2, Example 14 (peptide)
peptide: KGGAKRHAKVLR-NH2
notes: H4 12-23 with Arg19 replaced by Ala
Regarding B3, the Kd in experiment [1] was found to be 960 nM; in experiment [2] it was 1000 nM. Further, the “% P1L1” value in experiment [3] came out at 73.3%.

B4: Leu-Gly-Lys-Gly-Gly-Ala-Lys-Arg-His-Arg-Lys-Val-Leu-Arg-Asp-Asn-Ile-NH2 (Histone H4 peptide), Example 11 (peptide)
peptide: LGKGGAKRHRKVLRDNI
modifications: C-terminal amide (-NH2)
notes: Bought from JPT Peptide Technologies
With B4, in experiment [4], the Kd came out at 77 nM.

B5: Ala-Lys-Arg-His-Arg-Lys-Val-Leu-Arg-NH2, Example 12 (peptide)
peptide: AKRHRKVLR-NH2
As for B5, the results for the Kd in experiment [1] and in experiment [2] were 1950 nM and 2200 nM, respectively. Also, in experiment [3], the “% P1L1” value worked out at 62.6%.

B6: GST-TONSL ARD D559A (other)
chain: T1 sequence with D48A
notes: not shown: GST tag of the pGEX-6P-1 vector
Turning to B6, in experiment [5], the binding result is recorded as “no binding”.

B7: GST-TONSL ARD W563A (other)
chain: T1 sequence with W52A
notes: as for B6
B7: the binding result in experiment [5] is “no binding”.

B8: GST-TONSL ARD E568A (other)
chain: T1 sequence with E57A
notes: as for B6
For B8, the binding result in experiment [5] is listed as “no binding”.

B9: GST-TONSL ARD N571A (other)
chain: T1 sequence with N60A
notes: as for B6
For the molecule B9, the binding result in experiment [5] is “no binding”.

B10: GST-TONSL ARD E530A (other)
chain: T1 sequence with E19A
notes: as for B6
B10: in experiment [5], the binding result is given as “no binding”.

B11: GST-TONSL ARD D604A (other)
chain: T1 sequence with D93A
notes: as for B6
In the case of B11, the binding result in experiment [5] is “no binding”.

B12: histone H4 (residues 9-25) peptide, unmodified (peptide)
peptide: GLGKGGAKRHRKVLRDN
notes: Synthesised at Tufts University Core Facility; also called H4 (9-25); H4 tail (9-25)
B12 displayed a Kd in experiment [6] of 1500 nM.

B13: histone H4 (residues 9-25) peptide H18W (peptide)
peptide: GLGKGGAKRWRKVLRDN
notes: His18 mutated to Trp18
As to B13, the binding result in experiment [7] is listed as “no binding (tested: molar ratio about 1.8)”.
